Assay results published in the MegaScale stability set (Tsuboyama et al. 2023).

B1: 5KPH (parent)
chain: EEKRQVKQVAKEKLLEQSPNSKVQVRRVQKQGNTIRVELELRTNGKKENYTVEVERQGNTWTVKRITRT

Variants of: B1
Assay: folding stability dG (cDNA display proteolysis); higher = more stable
Details: PBS, room temperature

Variant	folding stability dG
E2G	3.24 kcal/mol
E2W	4.05 kcal/mol
E2V	3.73 kcal/mol
E2F	3.16 kcal/mol
E2A	3.63 kcal/mol
E2N	3.28 kcal/mol
E12W	2.92 kcal/mol
E12F	2.78 kcal/mol
E12K	3.83 kcal/mol
E12Y	2.83 kcal/mol
E12G	3.34 kcal/mol
E12N	3.73 kcal/mol
T69N	3.87 kcal/mol
T69P	2.87 kcal/mol
T69C	3.56 kcal/mol
T69Y	4 kcal/mol
T69F	3.52 kcal/mol
T69V	3.86 kcal/mol
V9L	4.16 kcal/mol
V9R	3.07 kcal/mol
V9N	2.18 kcal/mol
V9T	3.15 kcal/mol
V9H	2.88 kcal/mol
V54L	3.94 kcal/mol

Variant	folding stability dG
V54Y	2.94 kcal/mol
V54G	1.44 kcal/mol
V54E	1.33 kcal/mol
V54H	0.815 kcal/mol
K7V	4.86 kcal/mol
K7N	3.39 kcal/mol
K7C	4.11 kcal/mol
K7L	4.49 kcal/mol
T51S	3.75 kcal/mol
T51A	3.6 kcal/mol
T51Q	3.56 kcal/mol
T51Y	3.75 kcal/mol
T51I	4.13 kcal/mol
T51N	3.09 kcal/mol
T51E	3.87 kcal/mol
N20D	3.66 kcal/mol
N20Q	3.62 kcal/mol
N20F	3.35 kcal/mol
N20H	3.64 kcal/mol
N20T	3.6 kcal/mol
L41T	3.36 kcal/mol
L41G	2.38 kcal/mol
L41N	1.7 kcal/mol
I35S	3.37 kcal/mol

Variant	folding stability dG
I35L	3.71 kcal/mol
I35A	3.73 kcal/mol
V23T	2.51 kcal/mol
V23F	2.6 kcal/mol
V23Y	1.94 kcal/mol
V23G	1.59 kcal/mol
V23N	1.26 kcal/mol
V23E	1.2 kcal/mol
N44C	3.5 kcal/mol
N44L	3.83 kcal/mol
N44A	3.81 kcal/mol
N44R	3.66 kcal/mol
N44H	3.79 kcal/mol
N44Y	3.78 kcal/mol
N44F	3.7 kcal/mol
L15P	1.87 kcal/mol
L15M	3.7 kcal/mol
L15Y	3.14 kcal/mol
L15D	2.07 kcal/mol
G32L	3.09 kcal/mol
G32C	3.07 kcal/mol
G32I	2.67 kcal/mol
K47F	3.86 kcal/mol
K47R	4.02 kcal/mol

Variant	folding stability dG
K47S	3.92 kcal/mol
K47V	4.06 kcal/mol
K30C	3.69 kcal/mol
K30G	4.08 kcal/mol
K30F	4.62 kcal/mol
K30Q	4.25 kcal/mol
K30I	4.35 kcal/mol
R56A	3.25 kcal/mol
R56S	3.26 kcal/mol
S21N	2.38 kcal/mol
S21K	2.16 kcal/mol
E38H	4.14 kcal/mol
E38R	3.69 kcal/mol
E38Q	3.76 kcal/mol
E38V	3.85 kcal/mol
E38D	3.91 kcal/mol
V25N	1.72 kcal/mol
V25Y	2.81 kcal/mol
V25C	3.09 kcal/mol
V25Q	1.67 kcal/mol
V25E	1.74 kcal/mol
V25I	3.76 kcal/mol
T67K	3.55 kcal/mol
T67E	3.64 kcal/mol

Variant	folding stability dG
T67S	3.68 kcal/mol
T67P	1.34 kcal/mol
T67Y	4.38 kcal/mol
T60F	3.96 kcal/mol
T60Q	4.23 kcal/mol
T60M	4 kcal/mol
T60K	3.99 kcal/mol
T60S	4.13 kcal/mol
N59C	3.22 kcal/mol
N59F	3.54 kcal/mol
N59H	3.62 kcal/mol
N59E	3.92 kcal/mol
N59A	3.69 kcal/mol
N59G	4 kcal/mol
R68W	3.07 kcal/mol
R68V	3.46 kcal/mol
R68E	3.13 kcal/mol
R68G	2.87 kcal/mol
R68F	3.53 kcal/mol
S18V	3.94 kcal/mol
S18N	4.47 kcal/mol
S18R	3.82 kcal/mol
S18Q	3.82 kcal/mol
E55G	3.19 kcal/mol

Variant	folding stability dG
E55F	3.92 kcal/mol
T43P	2.17 kcal/mol
T43I	3.72 kcal/mol
T43K	3.69 kcal/mol
T43R	3.47 kcal/mol
T43D	3.65 kcal/mol
T43Y	3.88 kcal/mol
T43L	3.94 kcal/mol
T43W	3.7 kcal/mol
T43S	3.85 kcal/mol
Q24N	3.77 kcal/mol
Q24W	4.4 kcal/mol
Q24F	4.47 kcal/mol
Q24A	3.97 kcal/mol
G45N	3.55 kcal/mol
G45H	3.44 kcal/mol
G45W	3.66 kcal/mol
G45M	3.52 kcal/mol
G45Y	3.55 kcal/mol
K46L	3.79 kcal/mol
K46I	4.03 kcal/mol
K46F	3.81 kcal/mol
K46T	3.85 kcal/mol
K46E	3.44 kcal/mol

Variant	folding stability dG
K46R	4.01 kcal/mol
K3D	4.41 kcal/mol
K3Y	4.74 kcal/mol
I66M	3.38 kcal/mol
I66N	1.2 kcal/mol
I66H	1.67 kcal/mol
I66S	2.1 kcal/mol
I66F	3.04 kcal/mol
I66W	3.15 kcal/mol
L14C	3.29 kcal/mol
L14Q	1.9 kcal/mol
L14M	4.02 kcal/mol
K11E	3.44 kcal/mol
K11V	4.49 kcal/mol
K11G	2.74 kcal/mol
K11N	2.38 kcal/mol
Q5E	3.88 kcal/mol
Q5N	3.54 kcal/mol
Q5F	3.83 kcal/mol
Q5V	3.73 kcal/mol
E53L	4.04 kcal/mol
E53H	3.47 kcal/mol
E53R	2.69 kcal/mol
E53T	3.62 kcal/mol

Variant	folding stability dG
R4Y	3.64 kcal/mol
R4N	3.72 kcal/mol
R4P	2.55 kcal/mol
R4K	3.9 kcal/mol
R4M	3.84 kcal/mol
R65L	3.67 kcal/mol
R65G	3.6 kcal/mol
R65Y	3.7 kcal/mol
R65C	3.44 kcal/mol
R65F	3.53 kcal/mol
R26F	3.7 kcal/mol
R26P	1.51 kcal/mol
R26S	3.35 kcal/mol
R26G	3.32 kcal/mol
R26D	2.16 kcal/mol
R26A	3.09 kcal/mol
R26C	3.65 kcal/mol
R26T	3.92 kcal/mol
T34N	3.44 kcal/mol
T34K	3.4 kcal/mol
K64A	3.83 kcal/mol
K64P	2.28 kcal/mol
K64R	3.94 kcal/mol
K64T	4.29 kcal/mol

Variant	folding stability dG
K64Y	3.5 kcal/mol
K64V	4.3 kcal/mol
K64D	2.18 kcal/mol
K64W	3.08 kcal/mol
K64M	4.28 kcal/mol
N49H	4.04 kcal/mol
N49V	4.07 kcal/mol
N49D	3.57 kcal/mol
E48F	3.57 kcal/mol
E48L	3.39 kcal/mol
E48T	3.65 kcal/mol
E48C	3.38 kcal/mol
E48K	3.22 kcal/mol
E48A	3.58 kcal/mol
E48P	1.23 kcal/mol
Q8P	2.29 kcal/mol
Q8A	3.76 kcal/mol
Q8C	3.49 kcal/mol
Q8T	3.51 kcal/mol
Q8R	3.92 kcal/mol
Q8W	2.56 kcal/mol
W61F	3.74 kcal/mol
W61V	2.9 kcal/mol
W61M	3.21 kcal/mol

Variant	folding stability dG
Q29C	3.9 kcal/mol
Q29M	4.3 kcal/mol
Q29T	4.33 kcal/mol
Q29H	4.18 kcal/mol
Q29P	1.02 kcal/mol
Q29F	4.45 kcal/mol
Q29L	4.26 kcal/mol
Q57G	3.16 kcal/mol
Q57K	3.83 kcal/mol
Q57C	3.53 kcal/mol
Q57H	3.82 kcal/mol
Q57N	3.9 kcal/mol
V28Q	2.53 kcal/mol
V28S	2.5 kcal/mol
V28N	1.55 kcal/mol
V28R	1.56 kcal/mol
V37C	2.65 kcal/mol
V37W	1.87 kcal/mol
V37F	2.39 kcal/mol
V37S	0.645 kcal/mol
E40M	3.87 kcal/mol
E40A	3.52 kcal/mol
E40N	3.12 kcal/mol
E40L	3.96 kcal/mol

Variant	folding stability dG
E40K	3.32 kcal/mol
E40H	3.59 kcal/mol
E40S	3.73 kcal/mol
E40I	4.1 kcal/mol
E40P	0.357 kcal/mol
L39H	0.352 kcal/mol
L39M	3.66 kcal/mol
L39G	2.35 kcal/mol
L39V	3.83 kcal/mol
E1I	2.88 kcal/mol
E1L	3.06 kcal/mol
E1W	2.91 kcal/mol
E1M	3.33 kcal/mol
E1V	3.38 kcal/mol
E1N	3.37 kcal/mol
E1K	3.85 kcal/mol
E1D	3.52 kcal/mol
V6C	3.31 kcal/mol
V6N	1.92 kcal/mol
Y50N	0.663 kcal/mol
Y50Q	1.33 kcal/mol
Y50K	1.24 kcal/mol
Y50T	1.47 kcal/mol
R36E	3.54 kcal/mol

Variant	folding stability dG
R36T	3.9 kcal/mol
R36G	2.54 kcal/mol
R36K	4.23 kcal/mol
R36M	4.23 kcal/mol
R36H	4.04 kcal/mol
K22H	3.91 kcal/mol
K22V	4.01 kcal/mol
K22G	3.2 kcal/mol
G58M	3.24 kcal/mol
G58S	3.36 kcal/mol
G58D	3.75 kcal/mol
G58T	2.84 kcal/mol
G58F	3.43 kcal/mol
V52S	1.21 kcal/mol
V52G	0.851 kcal/mol
N33W	3.36 kcal/mol
N33A	3.79 kcal/mol
N33R	3.74 kcal/mol
N33Q	3.71 kcal/mol
P19Q	2.85 kcal/mol
P19F	2.54 kcal/mol
P19I	2.83 kcal/mol
P19R	2.76 kcal/mol
P19L	2.64 kcal/mol

Variant	folding stability dG
P19S	2.77 kcal/mol
P19Y	2.13 kcal/mol
P19V	2.82 kcal/mol
A10Q	1.91 kcal/mol
A10E	1.78 kcal/mol
A10W	2.27 kcal/mol
A10M	2.73 kcal/mol
K13D	1.86 kcal/mol
K13N	2.71 kcal/mol
K13R	3.61 kcal/mol
K13L	3.42 kcal/mol
K13C	3.62 kcal/mol
K13S	3.66 kcal/mol
K13F	3.99 kcal/mol
R27I	3.22 kcal/mol
R42H	3.91 kcal/mol
R42L	4.08 kcal/mol
R42E	4.12 kcal/mol
R42K	3.57 kcal/mol
E16Y	2.61 kcal/mol
E16Q	3.77 kcal/mol
E16G	3.25 kcal/mol
E16L	3.47 kcal/mol
E16N	3.21 kcal/mol

Variant	folding stability dG
E16S	3.55 kcal/mol
Q31W	4.41 kcal/mol
Q31V	4.25 kcal/mol
Q31E	4.05 kcal/mol
Q31H	4.3 kcal/mol
Q31A	3.75 kcal/mol
V63H	1.18 kcal/mol
V63W	2.07 kcal/mol
V63F	2.78 kcal/mol
V63N	0.507 kcal/mol
V63M	2.06 kcal/mol
V63E	1.26 kcal/mol
V63T	2.51 kcal/mol
V63S	1.81 kcal/mol
T62I	4.26 kcal/mol
T62H	3.93 kcal/mol
T62W	4.24 kcal/mol
T62N	3.62 kcal/mol
T62R	3.9 kcal/mol
Q17T	3.83 kcal/mol
Q17Y	4 kcal/mol
Q17D	3.46 kcal/mol
